Test results taken from patent US20250236642A1 (NEC, published 2025).

How the values were obtained:
HLA-A*02:01 molecule = molecular target: T1, HLA-A*02:01 molecule; assay: flow cytometry, T2 cells
T1 construct: MHC class I molecule on T2 cells (ATCC); also called product of an HLA-A*02:01 gene; allele A*02:01

HLA-A*24:02 molecule = molecular target: T2, HLA-A*24:02 molecule; assay: flow cytometry, C1R-A24 cells;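 also: Read-out was the amount of peptide–MHC complex on each cell, taken as the fluorescence intensity of a bound fluorescent antibody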
T2 construct: MHC class I molecule on C1R-A24 cells, endogenous peptide and b2m stripped at pH 3.3, purified b2m added back; also called product of an HLA-A*24:02 gene; allele A*24:02
Source text: Thereafter, the number of MHC-peps for each C1R-A24 cell (proportional to a fluorescence intensity of the fluorescent antibody) was quantitatively measured using a fluorescence cell analyzer FACScan (Becton-Dickinson).

| Binder | log Kd (HLA-A*02:01 molecule) | log10 Kd (M) (HLA-A*24:02 molecule) |
| --- | --- | --- |
| CLDEHQWQL (synthetic 9-mer derived from EVC1) [peptide of SEQ ID NO: 9] | -6.66 | -5.87 |
| CTDEHQWQL (synthetic 9-mer derived from EVC1) [peptide of SEQ ID NO: 39] | -5.04 | – |
| CIDEHQWQL (synthetic 9-mer derived from EVC1) [peptide of SEQ ID NO: 28] | -4.85 | -3.48 |
| CMIVHQGTI (synthetic 9-mer derived from c-Myb) [peptide of SEQ ID NO: 36] | – | -5.54 |
| VMSHHGEKL (synthetic 9-mer derived from Helios; also called A13) [peptide of SEQ ID NO: 19] | -5.08 | -6.1 |
| KFLEAFHEV (synthetic 9-mer derived from EVC1) [peptide of SEQ ID NO: 8] | -5.93 | -6.88 |
| LPFSPSQFL (synthetic 9-mer derived from c-Myb) [peptide of SEQ ID NO: 60] | – | -3.35 |
| MLPQTPSHL (synthetic 9-mer derived from c-Myb) [peptide of SEQ ID NO: 24] | -5.58 | -7.14 |
| ILSDHQQSQ (synthetic 9-mer derived from Casp-8) [peptide of SEQ ID NO: 70] | > -3 | > -3 |
| LLLFSAAAL (synthetic 9-mer derived from CADM1) [peptide of SEQ ID NO: 1] | -6.06 | -4.96 |
| ASPSHMTSM (synthetic 9-mer derived from Helios) [peptide of SEQ ID NO: 81] | > -3 | > -3 |
| ARHSTIPLV (synthetic 9-mer derived from c-Myb) [peptide of SEQ ID NO: 77] | > -3 | > -3 |
| EAIDGYITL (synthetic 9-mer; also called H1) [peptide of SEQ ID NO: 47] | – | -5.54 |
| STGESAQTS (synthetic 9-mer derived from Casp-8) [peptide of SEQ ID NO: 71] | > -3 | > -3 |
| YFFTVIFSF (synthetic 9-mer derived from Fas) [peptide of SEQ ID NO: 44] | – | -6.77 |
| AYRTCWIFS (synthetic 9-mer derived from Casp-8) [peptide of SEQ ID NO: 49] | – | -5.42 |
| SLVLTWAAL (synthetic 9-mer derived from EVC2) [peptide of SEQ ID NO: 14] | -5.63 | -5.31 |
| GRVMQIDGV (synthetic 9-mer derived from Wnt5a) [peptide of SEQ ID NO: 68] | – | -4.63 |
| ATLAPAVLL (synthetic 9-mer derived from EVC1) [peptide of SEQ ID NO: 10] | -5.56 | -5.2 |
| AVLAPAVLL (synthetic 9-mer derived from EVC1) [peptide of SEQ ID NO: 27] | -5.15 | 4.81 |
| THLDAGTVE (synthetic 9-mer derived from Casp-8) [peptide of SEQ ID NO: 75] | > -3 | > -3 |
| TVLVPPRNL (synthetic 9-mer derived from CADM1) [peptide of SEQ ID NO: 48] | – | -8.27 |

| Binder | log Kd (HLA-A*02:01 molecule) | log10 Kd (M) (HLA-A*24:02 molecule) |
| --- | --- | --- |
| GILSDHQQS (synthetic 9-mer derived from Casp-8) [peptide of SEQ ID NO: 74] | > -3 | > -3 |
| CDLSSFEFF (synthetic 9-mer derived from c-Myb) [peptide of SEQ ID NO: 58] | – | -4.1 |
| SLLITRKSF (synthetic 9-mer derived from Fas) [peptide of SEQ ID NO: 62] | – | -5.84 |
| VFGRVMQID (synthetic 9-mer derived from Wnt5a; also called A15) [peptide of SEQ ID NO: 66] | – | -5.41 |
| ALPKIRARV (synthetic 9-mer derived from EVC2) [peptide of SEQ ID NO: 12] | -5.66 | -6.18 |
| SPDEFSNDF (synthetic 9-mer derived from Casp-8) [peptide of SEQ ID NO: 73] | > -3 | > -3 |
| SSFEFFEEA (synthetic 9-mer derived from c-Myb) [peptide of SEQ ID NO: 37] | -6.49 | – |
| VLLQQFQTA (synthetic 9-mer derived from EVC2) [peptide of SEQ ID NO: 15] | -4.71 | -5.55 |
| VLPPARHST (synthetic 9-mer derived from c-Myb) [peptide of SEQ ID NO: 54] | -5.11 | – |
| GSPDEFSND (synthetic 9-mer derived from Casp-8) [peptide of SEQ ID NO: 72] | > -3 | > -3 |
| SLPFSPSQF (synthetic 9-mer derived from c-Myb) [peptide of SEQ ID NO: 56] | – | -7 |
| YVYDPPTTI (synthetic 9-mer derived from CADM1) [peptide of SEQ ID NO: 2] | -6.16 | -6.23 |
| YTYDPPTTI (synthetic 9-mer derived from CADM1) [peptide of SEQ ID NO: 3] | -5.47 | -5.51 |
| YLYDPPTTI (synthetic 9-mer derived from CADM1) [peptide of SEQ ID NO: 4] | -6.23 | -6.16 |
| LMEEHGATL (synthetic 9-mer derived from EVC2) [peptide of SEQ ID NO: 13] | -4.92 | -5.22 |
| LVEEHGATL (synthetic 9-mer derived from EVC2) [peptide of SEQ ID NO: 43] | -4.18 | – |
| LHEEHGATL (synthetic 9-mer derived from EVC2) [peptide of SEQ ID NO: 79] | > -3 | > -3 |
| LTEEHGATL (synthetic 9-mer derived from EVC2) [peptide of SEQ ID NO: 42] | -4.09 | – |
| LLEEHGATL (synthetic 9-mer derived from EVC2) [peptide of SEQ ID NO: 41] | -5.6 | – |
| LIEEHGATL (synthetic 9-mer derived from EVC2) [peptide of SEQ ID NO: 40] | -4.5 | – |
| ALRPAPALL (synthetic 9-mer derived from EVC1) [peptide of SEQ ID NO: 26] | -6.11 | -6.4 |
| LPPARHSTI (synthetic 9-mer derived from c-Myb) [peptide of SEQ ID NO: 76] | > -3 | > -3 |

| Binder | log Kd (HLA-A*02:01 molecule) | log10 Kd (M) (HLA-A*24:02 molecule) |
| --- | --- | --- |
| ATGDCSSFI (synthetic 9-mer derived from c-Myb) [peptide of SEQ ID NO: 59] | -4.08 | – |
| LLNPNRQTI (synthetic 9-mer derived from CADM1) [peptide of SEQ ID NO: 23] | -5.24 | -6.22 |
| HMAKVIEFL (synthetic 9-mer derived from EVC1) [peptide of SEQ ID NO: 38] | -5.69 | -6.03 |
| GYITLGKPH (synthetic 9-mer derived from Helios) [peptide of SEQ ID NO: 80] | > -3 | > -3 |
| SSLDPPKVL (synthetic 9-mer derived from c-Myb) [peptide of SEQ ID NO: 55] | – | -5.35 |
| HMTSSERPF (synthetic 9-mer derived from Helios) [peptide of SEQ ID NO: 64] | – | -4.16 |
| AQAPPTAQL (synthetic 9-mer derived from c-Myb) [peptide of SEQ ID NO: 5] | -6.02 | -5.75 |
| ATAPPTAQL (synthetic 9-mer derived from c-Myb) [peptide of SEQ ID NO: 25] | -5 | -4.54 |
| ALAPPTAQL (synthetic 9-mer derived from c-Myb) [peptide of SEQ ID NO: 6] | -6.58 | -5.33 |
| ISAYRTCWI (synthetic 9-mer derived from Casp-8) [peptide of SEQ ID NO: 34] | – | -5 |
| LLITRKSFI (synthetic 9-mer derived from Fas; also called A10) [peptide of SEQ ID NO: 16] | -5.13 | -6.64 |
| LTITRKSFI (synthetic 9-mer derived from Fas) [peptide of SEQ ID NO: 45] | – | -4.82 |
| LMITRKSFI (synthetic 9-mer derived from Fas) [peptide of SEQ ID NO: 17] | -5.2 | -6.01 |
| LAITRKSFI (synthetic 9-mer derived from Fas) [peptide of SEQ ID NO: 46] | – | -5.12 |
| LVITRKSFI (synthetic 9-mer derived from Fas) [peptide of SEQ ID NO: 30] | -4.01 | -5.46 |
| LHITRKSFI (synthetic 9-mer derived from Fas) [peptide of SEQ ID NO: 63] | – | -4.76 |
| LIITRKSFI (synthetic 9-mer derived from Fas) [peptide of SEQ ID NO: 29] | -4.11 | -5.6 |
| GYITCERPF (synthetic 9-mer derived from Helios) [peptide of SEQ ID NO: 65] | – | -6.52 |
| FIDSDSSSW (synthetic 9-mer derived from c-Myb) [peptide of SEQ ID NO: 57] | – | -4.7 |
| SLPNEKQTS (synthetic 9-mer derived from Casp-8) [peptide of SEQ ID NO: 69] | > -3 | > -3 |
| IFADVSSST (synthetic 9-mer derived from c-Myb) [peptide of SEQ ID NO: 78] | > -3 | > -3 |
| FSNDFGQSL (synthetic 9-mer derived from Casp-8) [peptide of SEQ ID NO: 35] | -3.9 | – |
